Measurements taken from the supplement of paper PMC7877785.
± gives the uncertainty stated by the source.

Assay: self-splicing fitness, log relative to wild type (ln ratio); higher = more splicing; Tetrahymena group I intron in knt gene, E. coli kanamycin selection, DiMSum; sequences stand for … in CUCUCU…GGAGGGAAAAGUUAUCAGGCAUGCACCUGGUAGCUAGUCUUUAAACCAAUAGAUUGCAUCGGUUUAAAAGGCAAGACCGUCAAAUUGCGGGAAAGGGGUCAACAGCCGUUCAGUACCAAGUCUCAGGGGAAACUUUGAGAUGGCCUUGCAAAGGGUAUGGUAAUAAGCUGACGGACAUGGUCCUAACCACGCAGCCAAGUCCUAAGUCAACAGAUCUUCUGUUGAUAUGGAUGCAGUUCACAGACUAAAUGUCGGUCGGGGAAGAUGUAUUCUUCUCAUAAGAUAUAGUCGGACCUCUCCUUAAUGGGAGCUAGCGGAUGAAGUGAUGCAACACUGGAGCCGCUGGGAACUAAUUUGUAUGCGAAAGUAUAUUGAUUAGUUUUGGAGUACUCGUGGUCG
Summary of the method: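 Colonies from six replicate transformations of E. coli BL21(DE3) were pooled and amplicon-sequenced on an Illumina HiSeq 2500. The library placed an intron with all eight P1ex-region nucleotides randomised inside the knt kanamycin-resistance gene on pET-22b(+), and cells grew overnight at 37°C or 30°C on LB agar with or without 25 μg/mL kanamycin (plus 100 μg/mL carbenicillin, 50 μM IPTG, 0.2% rhamnose). Fitness is the DiMSum error-weighted combination of wild-type-normalised replicate fold changes, kanamycin versus none.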

GCCUAGCAAUAUUACGGUUA
self-splicing fitness (ln) (30 °C): -1.47 ± 0.11 | self-splicing fitness (ln) (37 °C): -0.443 ± 0.091

GCCUAGCAAUAUUACGUAAA
self-splicing fitness (ln) (30 °C): -1.1 ± 0.076 | self-splicing fitness (ln) (37 °C): -0.594 ± 0.093

GCCUAGCAAUAUUACGUACU
self-splicing fitness (ln) (30 °C): -0.867 ± 0.092 | self-splicing fitness (ln) (37 °C): -0.282 ± 0.093

GCCUAGCAAUAUUACGUCGG
self-splicing fitness (ln) (30 °C): -3.62 ± 0.19 | self-splicing fitness (ln) (37 °C): -2.93 ± 0.21

GCCUAGCAAUAUUACGUCGU
self-splicing fitness (ln) (30 °C): -0.763 ± 0.068 | self-splicing fitness (ln) (37 °C): -0.337 ± 0.069

GCGAAGCAAUAUUACGAACC
self-splicing fitness (ln) (30 °C): -1.67 ± 0.13 | self-splicing fitness (ln) (37 °C): -1.06 ± 0.15

GCGAAGCAAUAUUACGACCA
self-splicing fitness (ln) (30 °C): -0.945 ± 0.21 | self-splicing fitness (ln) (37 °C): -0.159 ± 0.38

GCGAAGCAAUAUUACGACUC
self-splicing fitness (ln) (30 °C): -0.212 ± 0.086 | self-splicing fitness (ln) (37 °C): 0.367 ± 0.1

GCGAAGCAAUAUUACGAGAC
self-splicing fitness (ln) (30 °C): -2.67 ± 0.26 | self-splicing fitness (ln) (37 °C): -1.46 ± 0.25

GCGAAGCAAUAUUACGAUAA
self-splicing fitness (ln) (30 °C): -2.27 ± 0.15 | self-splicing fitness (ln) (37 °C): -1.46 ± 0.2

GCGAAGCAAUAUUACGAUAU
self-splicing fitness (ln) (30 °C): -2.52 ± 0.13 | self-splicing fitness (ln) (37 °C): -1.22 ± 0.12

GCGAAGCAAUAUUACGAUCC
self-splicing fitness (ln) (30 °C): -1.64 ± 0.21 | self-splicing fitness (ln) (37 °C): -1.76 ± 0.3

GCGAAGCAAUAUUACGCCUA
self-splicing fitness (ln) (30 °C): -3.1 ± 0.45 | self-splicing fitness (ln) (37 °C): -2.39 ± 0.34

GCGAAGCAAUAUUACGCGAA
self-splicing fitness (ln) (30 °C): -2.2 ± 0.13 | self-splicing fitness (ln) (37 °C): -1.68 ± 0.14

GCGAAGCAAUAUUACGCGCA
self-splicing fitness (ln) (30 °C): -1.75 ± 0.36 | self-splicing fitness (ln) (37 °C): -1.11 ± 0.22

GCGAAGCAAUAUUACGCGUC
self-splicing fitness (ln) (37 °C): -1.65 ± 0.17

GCGAAGCAAUAUUACGCGUU
self-splicing fitness (ln) (30 °C): -2.54 ± 0.15 | self-splicing fitness (ln) (37 °C): -2.77 ± 0.27

GCGAAGCAAUAUUACGCUAG
self-splicing fitness (ln) (30 °C): -3.28 ± 0.26 | self-splicing fitness (ln) (37 °C): -0.964 ± 0.32

GCGAAGCAAUAUUACGCUCA
self-splicing fitness (ln) (30 °C): -1.48 ± 0.28 | self-splicing fitness (ln) (37 °C): -2.25 ± 0.33

GCGAAGCAAUAUUACGGAUC
self-splicing fitness (ln) (30 °C): -0.303 ± 0.071 | self-splicing fitness (ln) (37 °C): -0.659 ± 0.094

GCGAAGCAAUAUUACGGAUG
self-splicing fitness (ln) (30 °C): -1.48 ± 0.078 | self-splicing fitness (ln) (37 °C): -1.32 ± 0.11

GCGAAGCAAUAUUACGGUCU
self-splicing fitness (ln) (30 °C): -1.71 ± 0.085 | self-splicing fitness (ln) (37 °C): -0.493 ± 0.089

GCGAAGCAAUAUUACGUAGC
self-splicing fitness (ln) (30 °C): -3.43 ± 0.23 | self-splicing fitness (ln) (37 °C): -2.22 ± 0.23

GCGAAGCAAUAUUACGUCGU
self-splicing fitness (ln) (30 °C): -3.79 ± 0.27 | self-splicing fitness (ln) (37 °C): -2.6 ± 0.28

GCGAAGCAAUAUUACGUUUA
self-splicing fitness (ln) (30 °C): -2.57 ± 0.14 | self-splicing fitness (ln) (37 °C): -1.32 ± 0.11

GCGCAGCAAUAUUACGAGAG
self-splicing fitness (ln) (30 °C): -3.03 ± 0.19 | self-splicing fitness (ln) (37 °C): -1.35 ± 0.1

GCGCAGCAAUAUUACGAUCC
self-splicing fitness (ln) (30 °C): -0.589 ± 0.15 | self-splicing fitness (ln) (37 °C): 0.707 ± 0.24

GCGCAGCAAUAUUACGAUCG
self-splicing fitness (ln) (30 °C): -1.61 ± 0.11 | self-splicing fitness (ln) (37 °C): 0.00803 ± 0.12

GCGCAGCAAUAUUACGCCUU
self-splicing fitness (ln) (30 °C): -2.92 ± 0.23 | self-splicing fitness (ln) (37 °C): 0.19 ± 0.14

GCGCAGCAAUAUUACGCGGA
self-splicing fitness (ln) (30 °C): -0.906 ± 0.096 | self-splicing fitness (ln) (37 °C): -0.269 ± 0.084

GCGCAGCAAUAUUACGGAAC
self-splicing fitness (ln) (30 °C): -1.37 ± 0.081 | self-splicing fitness (ln) (37 °C): -0.714 ± 0.098

GCGCAGCAAUAUUACGGAGG
self-splicing fitness (ln) (30 °C): -1.63 ± 0.12 | self-splicing fitness (ln) (37 °C): -0.473 ± 0.11

GCGCAGCAAUAUUACGGCCU
self-splicing fitness (ln) (30 °C): -0.201 ± 0.061 | self-splicing fitness (ln) (37 °C): 0.128 ± 0.072

GCGCAGCAAUAUUACGGGCA
self-splicing fitness (ln) (30 °C): -2.9 ± 0.14 | self-splicing fitness (ln) (37 °C): -1.24 ± 0.11

GCGCAGCAAUAUUACGGGGC
self-splicing fitness (ln) (30 °C): -3.33 ± 0.18 | self-splicing fitness (ln) (37 °C): -2.75 ± 0.38

GCGCAGCAAUAUUACGGUGC
self-splicing fitness (ln) (30 °C): -4.08 ± 0.25 | self-splicing fitness (ln) (37 °C): -2.13 ± 0.32

GCGCAGCAAUAUUACGUAAC
self-splicing fitness (ln) (30 °C): -1.3 ± 0.088 | self-splicing fitness (ln) (37 °C): -0.468 ± 0.12

GCGCAGCAAUAUUACGUCCG
self-splicing fitness (ln) (30 °C): -2.27 ± 0.11 | self-splicing fitness (ln) (37 °C): -0.478 ± 0.14

GCGCAGCAAUAUUACGUCGG
self-splicing fitness (ln) (30 °C): -1.4 ± 0.097 | self-splicing fitness (ln) (37 °C): -0.816 ± 0.13

GCGCAGCAAUAUUACGUGUC
self-splicing fitness (ln) (30 °C): -2.71 ± 0.19 | self-splicing fitness (ln) (37 °C): -2.83 ± 0.24

GCGCAGCAAUAUUACGUUCG
self-splicing fitness (ln) (30 °C): -1.7 ± 0.068 | self-splicing fitness (ln) (37 °C): -1.47 ± 0.096

GCGCAGCAAUAUUACGUUGU
self-splicing fitness (ln) (30 °C): -3.03 ± 0.13 | self-splicing fitness (ln) (37 °C): -1.24 ± 0.12

GCGGAGCAAUAUUACGAAUC
self-splicing fitness (ln) (30 °C): -2.17 ± 0.44

GCGGAGCAAUAUUACGAGGG
self-splicing fitness (ln) (30 °C): -4.49 ± 0.36 | self-splicing fitness (ln) (37 °C): -2.93 ± 0.34

GCGGAGCAAUAUUACGAGUC
self-splicing fitness (ln) (37 °C): -1.09 ± 0.45

GCGGAGCAAUAUUACGCACU
self-splicing fitness (ln) (30 °C): -2.62 ± 0.14 | self-splicing fitness (ln) (37 °C): -2.79 ± 0.18

GCGGAGCAAUAUUACGCCUA
self-splicing fitness (ln) (30 °C): -2.53 ± 0.46

GCGGAGCAAUAUUACGGCUG
self-splicing fitness (ln) (30 °C): -2.93 ± 0.34

GCGGAGCAAUAUUACGGGCG
self-splicing fitness (ln) (30 °C): -1.83 ± 0.13 | self-splicing fitness (ln) (37 °C): -1.21 ± 0.17
